From the supplement of paper PMC7125110
± gives the standard error. For some assays here: Fewer inactive variants are shown than the library holds.

B1: glmS ribozyme (parent)
chain: AUAAAAGCGCCAGAACUACAGAAAUGUAGUUGACGAGGAGGAGGUUUAUCGAAUUUUCGGCGGAUGCCUCCAAA

Columns and labels:
Settings in all cases: with glucosamine-6-phosphate
glucosamine-6-phosphate [1] = variants of: B1; test: kcat; higher = faster cleavage; RNA array
Method in brief: (§1)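 Using a hybridised Cy3 probe at 37 °C, barcoded ribozyme variants transcribed in situ by E. coli RNA polymerase on sequenced MiSeq chips were monitored across tiles imaged over ~14 h. The flow contained glucosamine-6-phosphate from 40 μM to 10 mM in HEPES/KCl/Mg(OAc)2 buffer. Signals were normalised to baseline and to non-cleaving reference variants before per-tile medians were fit to one- or two-exponential decays to yield kobs. Weighted Michaelis–Menten fits across concentrations gave kcat and KM.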

glucosamine-6-phosphate [2] = variants of: B1; test: KM; higher = weaker cofactor use; RNA array
Method in brief: as §1

glucosamine-6-phosphate [3] = variants of: B1; test: self-cleavage kobs at 640 uM GlcN6P; higher = faster cleavage; RNA array
Method in brief: as §1

glucosamine-6-phosphate [4] = variants of: B1; test: self-cleavage kobs at 2500 uM GlcN6P; higher = faster cleavage; RNA array
Method in brief: as §1

glucosamine-6-phosphate [5] = variants of: B1; test: self-cleavage kobs at 10000 uM GlcN6P; higher = faster cleavage; RNA array
Method in brief: as §1

glucosamine-6-phosphate [6] = variants of: B1; test: self-cleavage kobs at 160 uM GlcN6P; higher = faster cleavage; RNA array
Method in brief: as §1

glucosamine-6-phosphate [7] = variants of: B1; test: self-cleavage kobs at 40 uM GlcN6P; higher = faster cleavage; RNA array
Method in brief: as §1

| Variant | kcat (glucosamine-6-phosphate [1]) | KM (glucosamine-6-phosphate [2]) | self-cleavage kobs at 640 uM GlcN6P (glucosamine-6-phosphate [3]) | self-cleavage kobs at 2500 uM GlcN6P (glucosamine-6-phosphate [4]) | self-cleavage kobs at 10000 uM GlcN6P (glucosamine-6-phosphate [5]) | self-cleavage kobs at 160 uM GlcN6P (glucosamine-6-phosphate [6]) | self-cleavage kobs at 40 uM GlcN6P (glucosamine-6-phosphate [7]) |
| --- | --- | --- | --- | --- | --- | --- | --- |
| AUAAAAGCGCCAGAACUACAGAAAUGUAGUUAACGAGUAGGAGGUUUAUCGAAUUUUCAGCGGAAGCCUGCAAA | 1.63e-05 ± 2.9e-06 s⁻¹ | – | – | – | – | – | – |
| AUAAAAGCGCCAGAACUACAGAAAUGUAGUUAACGAGGACGAGGUUUAUCGAAUUUUCGGCGGAUGCCUCCAAA | 0.00047 ± 8.1e-05 s⁻¹ | 5730 ± 1600 µM | 5.53e-05 ± 9.2e-06 s⁻¹ | 0.000126 ± 1.8e-05 s⁻¹ | 0.000309 ± 3.3e-05 s⁻¹ | – | – |
| AUAAAAGCGCCAGAACUACAGAAAUGUAGUUAACGAGGAGGAGGUUUAUCGAAUUUUCGGCGGAUGACUCCAAA | 0.000956 ± 0.00011 s⁻¹ | 2730 ± 630 µM | 0.000168 ± 3.4e-05 s⁻¹ | 0.000586 ± 0.00011 s⁻¹ | 0.000728 ± 8.2e-05 s⁻¹ | 5.05e-05 ± 1.6e-05 s⁻¹ | – |
| AUAAAAGCGCCAGAACUACAGAAAUGUAGUUAACGAGGAGGAGGUUUAUCGAAUUUUCGGCGGAUGGCUCCAAA | 0.000177 ± 2.7e-05 s⁻¹ | 1890 ± 580 µM | 4.83e-05 ± 6.9e-06 s⁻¹ | 9.14e-05 ± 1.2e-05 s⁻¹ | 0.000164 ± 2.4e-05 s⁻¹ | – | < 1e-05 s⁻¹ |
| AUAAAAGCGCCAGAACUACAGAAAUGUAGUUAACGAGGAGGAGGUUUAUCGAAUUUUGGGCGGAUGCCUCCAAA | 0.000211 ± 4.8e-05 s⁻¹ | 6460 ± 3200 µM | – | 5.76e-05 ± 1.7e-05 s⁻¹ | 0.000129 ± 1.7e-05 s⁻¹ | – | – |
| AUAAAAGCGCCAGAACUACAGAAAUGUAGUGGACGAGGAGGAGGUUUAUCGAAUCUUCGGCGGAUGCCUCCAAA | 0.00961 ± 0.0014 s⁻¹ | 1860 ± 410 µM | 0.00232 ± 0.00064 s⁻¹ | 0.00461 ± 0.0011 s⁻¹ | 0.00884 ± 0.0015 s⁻¹ | 0.001 ± 0.00031 s⁻¹ | 0.000203 ± 4.2e-05 s⁻¹ |
| AUAAAAGCGCCAGAACUACAGAAAUGUAGUUAACGAGGAGGAGGUUUAUCGAAUUUUCGGCGGAUGCGUCCAAA | 3.18e-05 ± 4.2e-06 s⁻¹ | – | – | 3.93e-05 ± 1.4e-05 s⁻¹ | 2.81e-05 ± 9.3e-06 s⁻¹ | – | – |
| AUAAAAGCGCCAGAACUACAGAAAUGUAGUUAACGAGGAGGAGCUUUAUCGAAUUUUCGGCGGAUGUCUCCAAA | 0.000144 ± 5.9e-05 s⁻¹ | – | – | 0.000148 ± 4.6e-05 s⁻¹ | 0.00011 ± 2.3e-05 s⁻¹ | – | < 1e-05 s⁻¹ |
| AUAAAAGCGCCAGAACUACAGAAAUGUAGUUAACGAGGCGGAGGUUUAUCGAAUUUUCGGCGGAUGCCUCCAAA | 0.00032 ± 6.8e-05 s⁻¹ | 3190 ± 1300 µM | 6.63e-05 ± 1.2e-05 s⁻¹ | 0.000114 ± 2.1e-05 s⁻¹ | 0.000259 ± 3.2e-05 s⁻¹ | – | – |
| AUAAAAGCGCCAGAACUACAGAAAUGUAGUUAACGAGGAGGGGGUUUAUCGAAUUUUCGGCGGGUGCCUCCAAA | 0.00178 ± 0.00063 s⁻¹ | – | 0.000716 ± 0.00024 s⁻¹ | – | 0.0016 ± 0.00039 s⁻¹ | – | 3.12e-05 ± 1.5e-05 s⁻¹ |
| AUAAAAGCGCCAGAACUACAGAAAUGUAGUUAAUGAGGAGGAGGUUUAUCGAAUUUUCGGCGGAUGCCUCCAAA | < 1e-05 s⁻¹ | – | < 1e-05 s⁻¹ | – | – | – | – |
| AUAAAAGCGCCAGAACUACAGAAAUGUAGUUAACGAGGACGAGGUUUUUCGAAUUUUCGGCGGAUGCCUCCAAA | < 1e-05 s⁻¹ | – | – | – | – | – | < 1e-05 s⁻¹ |
| AUAAAAGCGCCAGAACUACAGAAAUGUAGUUAACGAGGAGGAGGUUUAUCGAAUUUUCGGCGGAUGCCUGCAAA | 0.000111 ± 1.6e-05 s⁻¹ | – | 9.43e-05 ± 1.5e-05 s⁻¹ | 6.07e-05 ± 2.4e-05 s⁻¹ | 0.00011 ± 1.3e-05 s⁻¹ | 2.97e-05 ± 1.1e-05 s⁻¹ | – |
| AUAAAAGCGCCAGAACUACAGAAAUGUAGUUAACGAGGAGGAGGUUUAUCGAAUUUUCGGCGGAUGCCUCGAAA | 0.000224 ± 3.5e-05 s⁻¹ | 1190 ± 450 µM | 6.85e-05 ± 1.1e-05 s⁻¹ | 0.00018 ± 2.8e-05 s⁻¹ | 0.000195 ± 2.2e-05 s⁻¹ | 5.06e-05 ± 1.5e-05 s⁻¹ | – |
| AUAAAAGCGCCAGAACUACAGAAAUGUAGUGGACGAGGAGGAGGUUGGUCGAAUUUUCGGCGGAUGCCUCCAAA | 1.96e-05 ± 7.2e-06 s⁻¹ | – | – | – | – | – | – |
| AUAAAAGCGCCAGAACUACAGAAAUGUAGUUAACGAGGAGGAGGUUUAUCGAUUUUUCGGCGGAUGCCUCCAAA | 0.00208 ± 0.00084 s⁻¹ | – | 0.000595 ± 0.0001 s⁻¹ | 0.00067 ± 0.00016 s⁻¹ | 0.00228 ± 0.0003 s⁻¹ | 0.000175 ± 3.9e-05 s⁻¹ | 3.74e-05 ± 9.9e-06 s⁻¹ |
| AUAAAAGCGCCAGAACUACAGAAAUGUAGUUAACGAGGAGGAGGUUUAUAGAAUUUUCGGCGGAUGCCUCCAAA | < 1e-05 s⁻¹ | – | – | – | – | – | – |
| AUAAAAGCGCCAGAACUACAGAAAUGUAGUGGACGAGGAGGAGGUUUAUCGAAUUUUCGGCGGAGGCCUCCAAA | 0.00259 ± 0.00018 s⁻¹ | 4140 ± 440 µM | 0.000375 ± 5.5e-05 s⁻¹ | 0.000924 ± 0.00017 s⁻¹ | 0.00184 ± 0.00019 s⁻¹ | 9.35e-05 ± 1.7e-05 s⁻¹ | – |
